PMC4835703, “Cellular uptake of exogenous calcineurin B is dependent on TLR4/MD2/CD14 complexes, and CnB is an endogenous ligand of TLR4” (Scientific Reports, 2016)

Target: T1, recombinant calcineurin B (UniProt P63098 1-170)
T1 construct: calcineurin B (CnB), regulatory subunit of calcineurin; recombinant protein (rhCnB); also called CnB; rhCnB; source: provided by Haikou Qili Pharmaceutical Co., Ltd
Assay: MST; purified TLR4 ectodomain or soluble CD14 labelled with DyLight 488, 20 nM in MST buffer; CnB titrated in 16 1:1 dilutions; 10 min incubation; Monolith NT.115, 25 °C, 50% LED power, 20% MST power
Conditions: both partners purified

B1: soluble CD14 (receptor)
chain: TTPEPCELDDEDFRCVCNFSEPQPDWSEAFQCVSAVEVEIHAGGLNLEPFLKRVDADADPRQYADTVKALRVRRLTVGAAQVPAQLLVGALRVLAYSRLKELTLEDLKITGTMPPLPLEATGLALSSLRLRNVSWATGRSWLAELQQWLKPGLKVLSIAQAHSPAFSCEQVRAFPALTSLDLSDNPGLGERGLMAALCPHKFPAIQNLALRNTGMETPTGVCAALAAAGVQPHSLDLSHNSLRATVNPSAPRCMWSSALNSLNLSFAGLEQVPKGLPAKLRVLDLSCNRLNRAPQPDELPEVDNLTLDGNPFLVPGTALPHEGSMN
modifications: labelled with DyLight 488 in the MST experiment and where it was the soluble partner in the ELISA; unlabelled where coated on the plate and in the co-IP
notes: CD14, soluble recombinant form; also called sCD14; purified soluble CD14; source: bought: Sino Biological, Inc
Kd: 1010 nM
